Experimental findings from PMC5062967 (Nucleic Acids Research, 2016) are described below.

For the assay, the target named is T1, human 5MP2 (ITC sample) (human, UniProt Q7L1Q6 1-419).
T1 sequence: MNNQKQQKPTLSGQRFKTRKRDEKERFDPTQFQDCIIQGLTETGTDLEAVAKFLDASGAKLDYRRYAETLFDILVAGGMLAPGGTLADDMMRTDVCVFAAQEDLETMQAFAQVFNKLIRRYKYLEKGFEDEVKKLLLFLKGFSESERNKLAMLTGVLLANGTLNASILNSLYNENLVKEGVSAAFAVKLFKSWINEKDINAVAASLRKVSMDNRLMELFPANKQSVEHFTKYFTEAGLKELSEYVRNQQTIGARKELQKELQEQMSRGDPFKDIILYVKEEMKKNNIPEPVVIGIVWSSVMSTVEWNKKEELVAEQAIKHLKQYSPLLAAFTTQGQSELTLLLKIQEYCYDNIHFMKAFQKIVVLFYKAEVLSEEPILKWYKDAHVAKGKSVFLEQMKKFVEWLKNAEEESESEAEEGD
Nature of the assay: ITC. (In ITC the heat of successive injections is recorded.)

B1: Human eIF2β_(53-136) carrying two K-boxes (domain or fragment)
chain: DLEADEEDTRKKDASDDLDDLNFFNQKKKKKKTKKIFDIDEAEEGVKDLKIESDVQEPTEPEDDLDIMLGNKKKKKKNVKFPDE
The Kd is the concentration at which binding is half-saturated. Low values mean tighter binding, high ones weaker binding. The molecule B1 had a Kd of 1.5 µM.
